Assay results from US11549134B2, “Modified amadoriase and method for producing the same, agent for improving surfactant resistance of amadoriase and composition for measuring HbA1c using the same” (Kikkoman Corporation, priority 2013, dated 2023).

Columns and labels:
Type in all cases: biochemical
[1] = Measurement of fructosyl peptide sample (αFVH) under mixing of CTAC, change in absorbance at 751 nm
Method: The purified enzyme of CFP-T7 and CFP-D7 obtained in Example 3-2 was used to measure a sample as shown below. The activity values of CFP-T7 and CFP-D7 were determined using (reagent 1) adjusted to pH 7.0 with αFVH at a final concentration of 5 mM as a substrate according to the method for measuring amadoriase activity.
(Reagent 4) αFVH (125 mg) was dissolved in ion-exchanged water, the volume of the solution was fixed to 10 ml, and thereby a 30 mM substrate solution was obtained. In addition, the resultant was diluted by 1/714 with a CTAC solution to provide a 42 μM αFVH/0% to 0.2% CTAC solution.
(Reagent 6) (50 μl) was added to a mixed solution of 135 μl of (reagent 5) warmed at 37° C. for 5 minutes in advance and 25 μl of the sample prepared in (11) above to start reaction, and absorbance at a wavelength of 751 nm after reaction at 37° C. for 5 minutes was measured using an automated analyzer, Bio Majesty JCA-BM1650 (from JEOL Ltd.). Absorbance (reagent blank) at a wavelength of 751 nm measured by a similar operation for (reagent 4) prepared using ion-exchanged water in place of the substrate solution was used as a control to calculate the amount of change in absorbance (difference) when each sample was measured, using the following equation. The final concentration of a colorimetric substrate, DA-64, was 0.15 mM; the final concentration of αFVH in the case of the presence of a substrate was 5 μM; and the length (optical path) of the cell used for absorbance measurement was 1 cm. Amount of change in absorbance=ΔAes−Ae0
The amount of change in absorbance when αFVH/0% to 0.2% CTAC were used as samples was calculated.
The purified preparations of amadoriases obtained as described above were used as samples to measure αFVH under the mixing of CTAC using PnFX and NvFX as in Example 5.

[2] = Surfactant resistance (residual activity), 0.04% SDS; settings: 30 mM MES/21 mM Tris buffer (pH 6.5)
Method: An amadoriase crude enzyme solution or an amadoriase purified sample is diluted with a 30 mM MES/21 mM Tris buffer solution (pH6.5) so as to have a concentration of about 1.0 U/ml. To this, CTAC (for example, manufactured by Tokyo Kasei Kogyo Co., Ltd.) is added so as to obtain a final concentration 0.01% (w/v) or 0.04%. The resultant mixture is heated at 30° C. for 5 minutes. After heating, the mixture is diluted double with a 10 mM phosphate buffer (pH7.0) containing 0.15% BSA to prepare a sample. The enzyme activities of the sample before and after a surfactant treatment are measured by the method described in Section B above. […] In this manner, surfactant resistance is evaluated.
The stability of CFP-D was evaluated using sodium dodecyl sulfate (hereinafter indicated with “SDS”) in place of the surfactant CTAC used in Example 2. The surfactant resistance of the modified amadoriases was evaluated in accordance with a measurement method for surfactant resistance according to Example 1 although under surfactant treatment conditions in which the amadoriases were each diluted in a 30 mM MES/21 mM Tris buffer solution (pH 6.5) and mixed with 0.04% SDS. In this respect, it was confirmed that when the warmed sample was again measured for activity 30 minutes after 2-fold dilution in a BSA solution, there was no change in the activity value.

[3] = Surfactant resistance (residual activity) of CFP-D multiple variants, 0.04% CTAC; settings: 30°C, 5 minutes, crude enzyme
Method: An amadoriase crude enzyme solution or an amadoriase purified sample is diluted with a 30 mM MES/21 mM Tris buffer solution (pH6.5) so as to have a concentration of about 1.0 U/ml. To this, CTAC (for example, manufactured by Tokyo Kasei Kogyo Co., Ltd.) is added so as to obtain a final concentration 0.01% (w/v) or 0.04%. The resultant mixture is heated at 30° C. for 5 minutes. After heating, the mixture is diluted double with a 10 mM phosphate buffer (pH7.0) containing 0.15% BSA to prepare a sample. The enzyme activities of the sample before and after a surfactant treatment are measured by the method described in Section B above. The ratio of activity of the sample after the surfactant treatment relative to the activity of the sample before the surfactant treatment (regarded as 100), i.e., the residual activity (%), is obtained. In this manner, surfactant resistance is evaluated. […]

B1: CFP-T7: amadoriase derived from the genus Coniochaeta, SEQ ID NO: 1; triple variant with mutations at positions 272, 302 and 388 (protein, listed as Coniochaeta sp.)
chain: MTSNRADTRVIVVGGGGTIGSSTALHLVRSGYAPANITVLDTFEIPSAQSAGHDLNKIMGIRLRNKVDLQMSLEARQMWKEDELFQPFFHNTGRMDCEHTPEGIEDLKKQYQALHDAGAGLEKTHAWLDNEDEILSKMPLLQRDQIQGWKAIWSQDGGWLAAAKAINAIGQFLKERGVKFGFGGAGSFKQPLFDDEGTTCIGVETADGTKYYADKVVLAAGAWSPTLVDLEDQCCSKAWVYAHIQLTPEEAAEYKGVPVVYNGEFGFFFEPDEFGVIKVCDEFPGFSRFKEHQPYGAPSPKRISVPRSHAKHPTDTYPDASEVSIKKAIATFLPRFQDKELFNRALCWCTDTADAALLMCEHPKWKNFILATGDSGHSFKILPNVGKYVVELIEGRLPEEMAYQWRWRPGGDALKSRRAAPPKDLADMPGWKHDPKL
For B1, which “Amount of Change in Absorbance at Wavelength of 751 nm under Mixing of Each Concentration of CTAC” value (“Amount of Change in Absorbance” below) ([1]; Mixing of CTAC 0%, as in Example 5, Table 7) is on record?
The value was 0.150.

And the “Amount of Change in Absorbance” value ([1]; Mixing of CTAC 0%, αFVH final 5 μM, 37°C, 5 minutes, Table 5)?
The value was 0.150.

What about the “Amount of Change in Absorbance” value ([1]; Mixing of CTAC 0.005%, αFVH final 5 μM, 37°C, 5 minutes, Table 5) of the same molecule?
Its value is 0.111.

And the “Amount of Change in Absorbance” value ([1]; Mixing of CTAC 0.01%, as in Example 5, Table 7)?
The value was 0.077.

What about the “Amount of Change in Absorbance” value ([1]; Mixing of CTAC 0.01%, αFVH final 5 μM, 37°C, 5 minutes, Table 5) of the same molecule?
Its value is 0.077.

And the “Amount of Change in Absorbance” value ([1]; Mixing of CTAC 0.02%, as in Example 5, Table 7)?
The value was 0.031.

And the “Amount of Change in Absorbance” value ([1]; Mixing of CTAC 0.02%, αFVH final 5 μM, 37°C, 5 minutes, Table 5)?
The value was 0.031.

What about the “Amount of Change in Absorbance” value ([1]; Mixing of CTAC 0.04%, as in Example 5, Table 7) of the same molecule?
The value was 0.005.

And the “Amount of Change in Absorbance” value ([1]; Mixing of CTAC 0.04%, αFVH final 5 μM, 37°C, 5 minutes, Table 5)?
The value was 0.005.

And the “Residual Activity(%)” value [2]?
Its value is 2.76%.

What about the “Residual Activity(%)” value [3] of the same molecule?
Its value is 2.27%.
